Data reported in paper PMC7054364.

Target: FITC-labelled type I collagen (UniProt P02453)
Sequence of UniProt P02453 (P02453 23-1217, chain 1 of 2): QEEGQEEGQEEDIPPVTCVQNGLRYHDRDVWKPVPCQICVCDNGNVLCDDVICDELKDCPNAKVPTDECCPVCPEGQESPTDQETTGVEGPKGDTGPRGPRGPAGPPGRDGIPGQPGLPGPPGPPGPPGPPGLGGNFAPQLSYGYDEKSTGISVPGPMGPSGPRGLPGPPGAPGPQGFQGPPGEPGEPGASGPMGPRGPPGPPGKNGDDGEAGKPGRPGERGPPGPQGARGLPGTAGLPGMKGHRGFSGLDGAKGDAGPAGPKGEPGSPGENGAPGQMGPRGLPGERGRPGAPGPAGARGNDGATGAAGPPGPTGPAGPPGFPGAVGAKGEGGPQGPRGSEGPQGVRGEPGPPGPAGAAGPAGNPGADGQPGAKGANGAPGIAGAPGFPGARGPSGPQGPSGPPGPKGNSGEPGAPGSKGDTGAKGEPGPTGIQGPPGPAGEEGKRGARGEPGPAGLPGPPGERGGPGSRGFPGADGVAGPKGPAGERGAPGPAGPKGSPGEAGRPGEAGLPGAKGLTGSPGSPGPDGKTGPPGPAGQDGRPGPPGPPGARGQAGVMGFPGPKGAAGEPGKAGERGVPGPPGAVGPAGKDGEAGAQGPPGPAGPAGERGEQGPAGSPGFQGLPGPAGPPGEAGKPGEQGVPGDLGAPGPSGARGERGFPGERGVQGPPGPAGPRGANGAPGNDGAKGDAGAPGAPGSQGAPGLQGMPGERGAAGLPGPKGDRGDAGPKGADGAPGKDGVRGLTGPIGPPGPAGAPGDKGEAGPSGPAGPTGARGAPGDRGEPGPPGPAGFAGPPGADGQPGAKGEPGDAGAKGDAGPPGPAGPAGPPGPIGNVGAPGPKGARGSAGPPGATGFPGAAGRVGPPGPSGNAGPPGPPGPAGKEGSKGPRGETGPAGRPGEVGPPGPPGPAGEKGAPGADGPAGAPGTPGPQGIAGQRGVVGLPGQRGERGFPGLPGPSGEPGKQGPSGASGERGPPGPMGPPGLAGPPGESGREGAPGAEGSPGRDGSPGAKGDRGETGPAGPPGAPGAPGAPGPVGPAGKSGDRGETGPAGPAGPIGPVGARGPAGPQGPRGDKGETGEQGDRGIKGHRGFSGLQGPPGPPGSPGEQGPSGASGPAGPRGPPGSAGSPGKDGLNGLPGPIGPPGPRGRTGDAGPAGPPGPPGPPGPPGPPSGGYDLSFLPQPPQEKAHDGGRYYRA
Sequence of UniProt P02453 (P02465 80-1117, chain 2 of 2, further chain): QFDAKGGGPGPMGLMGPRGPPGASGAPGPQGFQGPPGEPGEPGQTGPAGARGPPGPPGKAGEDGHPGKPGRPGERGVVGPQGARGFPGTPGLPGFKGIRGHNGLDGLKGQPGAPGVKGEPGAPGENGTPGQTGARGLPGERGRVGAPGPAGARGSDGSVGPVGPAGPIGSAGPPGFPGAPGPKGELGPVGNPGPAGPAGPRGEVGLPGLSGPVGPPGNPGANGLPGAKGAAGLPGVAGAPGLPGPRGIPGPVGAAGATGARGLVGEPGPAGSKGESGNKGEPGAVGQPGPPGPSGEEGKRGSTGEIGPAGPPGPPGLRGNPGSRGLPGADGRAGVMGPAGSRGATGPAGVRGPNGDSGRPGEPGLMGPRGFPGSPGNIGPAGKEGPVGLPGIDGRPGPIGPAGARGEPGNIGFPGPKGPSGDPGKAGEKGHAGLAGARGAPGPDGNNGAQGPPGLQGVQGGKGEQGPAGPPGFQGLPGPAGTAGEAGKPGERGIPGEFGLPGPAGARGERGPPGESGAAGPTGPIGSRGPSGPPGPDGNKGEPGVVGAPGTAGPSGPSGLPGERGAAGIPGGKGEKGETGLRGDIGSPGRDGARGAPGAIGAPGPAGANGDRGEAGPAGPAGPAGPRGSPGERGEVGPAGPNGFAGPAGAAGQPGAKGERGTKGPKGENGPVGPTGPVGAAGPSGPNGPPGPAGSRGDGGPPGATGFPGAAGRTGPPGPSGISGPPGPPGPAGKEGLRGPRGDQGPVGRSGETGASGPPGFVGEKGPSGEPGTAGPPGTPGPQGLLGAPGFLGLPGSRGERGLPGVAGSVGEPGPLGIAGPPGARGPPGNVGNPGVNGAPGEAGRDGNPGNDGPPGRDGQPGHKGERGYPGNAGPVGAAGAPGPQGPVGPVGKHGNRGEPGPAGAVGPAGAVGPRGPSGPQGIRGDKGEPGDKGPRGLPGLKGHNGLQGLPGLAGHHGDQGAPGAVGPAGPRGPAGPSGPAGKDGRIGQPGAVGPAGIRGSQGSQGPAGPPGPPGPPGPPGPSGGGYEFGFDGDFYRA

Substance “purified collagenase product from C. histolyticum” has a Km of hydrolysis of FITC-labelled type I collagen (Lineweaver-Burk plot; 50 mM Tris-HCl, 0.2 M NaCl, 5 mM CaCl2, pH 7.5, 30 °C) of 0.00189 mM.

“recombinant 62-kDa collagenase from Grimontia hollisae (enzyme)” showed a Km of hydrolysis of FITC-labelled type I collagen (Lineweaver-Burk plot; 50 mM Tris-HCl, 0.2 M NaCl, 5 mM CaCl2, pH 7.5, 30 °C) of 0.00109 mM.
